Source: the RNAGym collection of RNA variant scans (doi:10.1093/nar/gkz1192)

B1: CPEB3 Ribozyme (parent)
chain: UAACAGGGGGCCACAGCAGAAGCGUUCACGUCGCAGCCCCUGUCAGAUUCUGGUGAAUCUGCGAAUUCUGCUGUAUAUCUC

Variants of: B1
Test: self-cleavage, relative activity (ratio to wild type); higher = more cleavage; in vitro, sequencing
How it was run: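 Relative activity was defined as the cleaved/total read fraction for a variant divided by the same fraction for the unmutated ribozyme. CPEB3 self-cleaving ribozyme libraries were made by rounds of error-prone PCR, barcoded, and transcribed in vitro with T7 RNA polymerase for 5 hours at 37°C, and cleavage ran through transcription plus a 15 min DNase I step before EDTA. Illumina sequencing of template-switched reverse transcripts gave the reads, and DNA sequencing mapped the barcodes. Averages come from three batches, using variants with at least 5 reads.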

Variant | self-cleavage
U1C G19A | 0.32
U1A U58C | 0.66
U1A U58A | 0.29
A2G A45U | 0.44
A2G A45G | 0.45
A2G A45C | 0.5
U1A G6A | 0.27
U1A G33A | 0.28
A2G C4U | 1.09
A2C A35G | 1.24
U1G C38A | 0.48
U1A A75G | 0.9
U1A A75U | 1.14
U1A C27A | 0.22
U1C G8A | 0.34
U1C G8U | 0.39
U1C G73U | 1.08
U1G U69A | 0.65
U1C G42A | 0.45
U1G A56G | 0.92
U1G A18G | 0.61
A2G A18U | 0.38
A2G A18C | 0.43
A2G A18G | 0.48

Variant | self-cleavage
U1A U54A | 1.14
U1A U54C | 1.08
U1A U54G | 0.76
U1A G52A | 1.1
U1C A47U | 0.47
U1C A47G | 0.9
U1A U74A | 1.25
U1A U74C | 1.18
A2G A3G | 1.01
A2G A3C | 0.89
U1A C38A | 0.35
U1A C38G | 0.45
U1A C38U | 0.97
U1C U74G | 1.19
U1C U74A | 1.21
U1C U74C | 1.21
U1A C23G | 0.1
U1A C23U | 0.22
U1G C27A | 0.43
U1G A15G | 0.84
U1G U78C | 0.82
U1A G30A | 0.11
U1A C32U | 0.3
U1A C32G | 0.09

Variant | self-cleavage
U1G A57C | 0.37
U1G A35G | 1.25
U1C G52A | 1
U1A G22A | 0.23
U1A C81U | 1.11
U1A U31C | 0.65
U1A U31A | 0.64
A2G A56G | 0.5
A2G A56U | 0.31
A2C A13G | 0.49
U1C A3G | 0.9
U1C A3U | 0.83
U1C C23A | 0.22
U1C C23G | 0.42
U1C C23U | 0.47
U1C C29U | 0.33
U1C C29A | 0.32
U1C C50A | 0.61
U1A U66A | 0.42
U1A U66C | 0.4
A2G A35G | 1.21
A2G A35U | 0.37
U1C C12U | 1.22
U1A C14A | 1.17

Variant | self-cleavage
A2C U72A | 0.72
A2C U72C | 0.9
U1C A21U | 0.3
U1C A21C | 0.35
U1C A21G | 0.24
A2C A15U | 0.5
A2C A15G | 0.69
A2G C12G | 0.38
A2G C12U | 1.04
U1G A2G | 0.95
U1C A77U | 0.97
U1C A77G | 0.91
U1A U60C | 0.35
U1A U60A | 0.56
U1C C11U | 0.36
U1C C11G | 0.43
A2C G9U | 0.21
U1G A47G | 1.16
U1A U72G | 0.75
U1A U72C | 1.02
U1A U72A | 0.55
U1C A28G | 0.55
U1C A28U | 0.67
A2C C23U | 0.25

Variant | self-cleavage
U1C U67G | 0.22
U1C U67A | 0.4
U1C U67C | 0.26
U1A G36C | 0.09
U1A G36A | 0.29
U1A C68A | 0.41
U1A C68U | 0.82
U1C G53U | 0.72
U1C G53A | 0.98
U1A U76C | 1.04
U1G A13G | 0.66
U1G U48C | 0.79
U1C A35U | 0.33
U1C A35C | 0.71
U1C A35G | 1.24
U1C C81G | 1.21
A2C U25C | 0.49
A2G A65U | 0.38
A2G A65G | 0.29
A2C U49C | 0.42
U1G G53C | 0.89
U1C U69A | 0.44
U1C U69C | 0.46
A2C U80A | 1.2

Variant | self-cleavage
A2G A5U | 0.8
A2G A5C | 0.94
A2G A5G | 0.73
U1A U43G | 0.54
U1A U43A | 1.08
U1A U43C | 0.58
U1C A65G | 0.42
U1C A65U | 0.31
U1A G73U | 1.44
U1A G73A | 1.21
U1A C12A | 1.14
U1A C12U | 1.2
U1A C12G | 0.43
A2C A64U | 0.21
A2C A64G | 0.74
U1C A57G | 0.85
U1C U25C | 0.32
U1C U25G | 0.22
U1C U25A | 0.37
U1G A5U | 0.98
U1C A20U | 0.29
U1C A20G | 0.59
U1C U41G | 0.53
U1C U41A | 0.21

Variant | self-cleavage
U1C U41C | 0.87
U1A C11G | 0.49
U1A C11U | 0.46
U1C U43C | 0.57
U1C U43A | 1.1
A2C U31C | 0.63
U1C U48C | 0.41
U1C U48A | 0.16
U1G A28C | 0.6
U1G A28G | 0.55
U1C A64U | 0.26
U1C A64G | 0.8
U1A C59U | 0.46
A2C G52A | 1.02
U1C C14U | 1.07
A2G A47C | 0.29
A2G A47G | 0.48
A2G A28C | 0.38
A2G A28G | 0.4
A2G A28U | 0.52
A2C A5G | 0.86
U1C U76A | 0.78
U1C U76C | 0.8
